Measurements as given in paper PMC7057995, “Structural basis of RNA polymerase I pre-initiation complex formation and promoter melting”.

Target: Core factor (CF) wild type: Rrn6/Rrn7/Rrn11 (Saccharomyces cerevisiae, UniProt P32786;P40992;Q04712 1-894;1-514;1-507)
Experiment: EMSA; 0.2 pmol DNA; 0.25, 0.5, 1 pmol CF; EMSA: 20 mM HEPES/KOH pH 7.8, 10% glycerol, 200 mM KCl, 1 mM MgCl2, 0.1 mg/ml BSA, 1 mM DTT, 30 min, temperature not stated; 6% native gel, 0.5x TBE
Conditions: protein: recombinant; tags: His (Ni-NTA purified); copies: 1;1;1; label: NTS -3 Atto647N; TS -5 Cy3; blunt

Chain of Core factor (CF) wild type: Rrn6/Rrn7/Rrn11 (P32786 whole entry, chain 1 of 3): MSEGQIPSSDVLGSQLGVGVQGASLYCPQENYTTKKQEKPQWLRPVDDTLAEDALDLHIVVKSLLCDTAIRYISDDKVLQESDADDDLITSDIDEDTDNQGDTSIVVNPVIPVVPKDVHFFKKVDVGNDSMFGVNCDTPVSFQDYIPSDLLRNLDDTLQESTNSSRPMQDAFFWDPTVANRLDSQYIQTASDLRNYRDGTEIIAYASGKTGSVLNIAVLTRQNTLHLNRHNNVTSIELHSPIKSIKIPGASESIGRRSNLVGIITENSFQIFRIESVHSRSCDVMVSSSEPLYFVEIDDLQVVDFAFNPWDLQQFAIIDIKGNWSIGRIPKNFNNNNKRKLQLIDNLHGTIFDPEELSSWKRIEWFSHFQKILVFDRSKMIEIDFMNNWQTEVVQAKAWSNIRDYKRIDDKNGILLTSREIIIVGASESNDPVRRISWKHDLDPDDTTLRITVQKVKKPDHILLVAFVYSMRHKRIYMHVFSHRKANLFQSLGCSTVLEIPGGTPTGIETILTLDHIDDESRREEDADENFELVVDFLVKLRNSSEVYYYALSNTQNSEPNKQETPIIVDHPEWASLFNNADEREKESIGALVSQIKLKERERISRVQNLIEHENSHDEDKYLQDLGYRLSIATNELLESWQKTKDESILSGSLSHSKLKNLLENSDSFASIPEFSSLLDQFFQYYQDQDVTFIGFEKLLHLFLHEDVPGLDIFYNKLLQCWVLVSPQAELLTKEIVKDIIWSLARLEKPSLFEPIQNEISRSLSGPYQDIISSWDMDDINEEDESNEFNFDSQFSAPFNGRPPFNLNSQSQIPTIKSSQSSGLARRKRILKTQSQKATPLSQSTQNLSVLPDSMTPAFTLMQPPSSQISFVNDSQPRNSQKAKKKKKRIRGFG
Chain of Core factor (CF) wild type: Rrn6/Rrn7/Rrn11 (P40992 whole entry, chain 2 of 3): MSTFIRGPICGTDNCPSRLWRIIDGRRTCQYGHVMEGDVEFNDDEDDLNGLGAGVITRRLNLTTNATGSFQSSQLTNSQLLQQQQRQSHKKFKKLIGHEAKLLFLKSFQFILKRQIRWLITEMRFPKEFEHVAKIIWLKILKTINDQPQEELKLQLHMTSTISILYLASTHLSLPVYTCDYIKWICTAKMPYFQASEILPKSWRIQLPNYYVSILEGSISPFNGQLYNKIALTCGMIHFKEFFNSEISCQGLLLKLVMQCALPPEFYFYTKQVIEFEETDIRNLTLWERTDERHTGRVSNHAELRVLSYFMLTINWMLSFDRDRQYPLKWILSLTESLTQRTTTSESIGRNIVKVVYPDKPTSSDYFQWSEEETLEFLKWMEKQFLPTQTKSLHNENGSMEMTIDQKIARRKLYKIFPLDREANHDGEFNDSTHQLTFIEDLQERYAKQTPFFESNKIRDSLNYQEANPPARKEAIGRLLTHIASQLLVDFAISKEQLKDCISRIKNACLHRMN
Chain of Core factor (CF) wild type: Rrn6/Rrn7/Rrn11 (Q04712 whole entry, chain 3 of 3): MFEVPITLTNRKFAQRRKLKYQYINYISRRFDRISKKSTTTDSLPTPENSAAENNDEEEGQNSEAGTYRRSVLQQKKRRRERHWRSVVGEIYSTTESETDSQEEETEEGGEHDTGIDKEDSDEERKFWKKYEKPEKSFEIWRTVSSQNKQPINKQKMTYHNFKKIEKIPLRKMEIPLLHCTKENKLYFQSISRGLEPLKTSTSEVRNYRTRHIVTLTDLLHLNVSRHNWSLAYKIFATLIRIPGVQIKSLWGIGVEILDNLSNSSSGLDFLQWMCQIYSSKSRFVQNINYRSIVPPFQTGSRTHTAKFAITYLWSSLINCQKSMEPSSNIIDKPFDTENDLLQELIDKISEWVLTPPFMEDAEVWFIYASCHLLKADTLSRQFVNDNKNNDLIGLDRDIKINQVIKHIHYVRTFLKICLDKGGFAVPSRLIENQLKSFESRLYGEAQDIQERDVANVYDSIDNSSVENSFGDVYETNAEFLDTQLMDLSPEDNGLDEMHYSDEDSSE

B1: rDNA promoter -83 to +26 (EMSA; ID 4691/4692) (dsDNA)
DNA 1: AAAAGTAAGATTTTAGTTTGTAATGGGAGGGGGAATTTAGTCATGGAGTACAAGTGTGAGGAAAAGTAGTTGGGAGGTACTTCATACCAAAGGGGTTCAACACAAGGGT
DNA 2: ACCCTTGTGTTGAACCCCTTTGGTATGAAGTACCTCCCAACTACTTTTCCTCACACTTGTACTCCATGACTAAATTCCCCCTCCCATTACAAACTAAAATCTTACTTTT
Q: Does B1 bind?
A: binds
